In this data set the test system is GFP-Sp1. The experiment in a line: Deglycosylation of GFP-Sp1 co-expressed with OGA constructs (anti-EPEA enrichment, immunoblot). The conditions noted are these: co-expressed in HEK 293T cells. It counts as cell-based, human. Here is the method: HEK 293T cells were cultured in Dulbecco's Modified Eagle Medium (DMEM, Cat #11995073) supplemented with penicillin (50 μg/mL) and streptomycin (50 μg/mL) along with 10% (v/v) FBS. Transfections of all plasmids in this study were performed using TransIT-PRO® (Mirus Bio, Cat #MIR 5740) according to the manufacturer's instructions.
Glycoproteins Nup62, Sp1, JunB, c-Jun were subcloned into pcDNA3.1 vector with a GFP and a Flag-tag or a BC2 tag in the N-terminus and an EPEA tag in the C terminus respectively, unless otherwise noted. For all split OGA constructs with or without the fusion of nanobody GFP, N fragments were tagged with myc tag and C fragments were tagged with HA tag respectively. […]
After 36-48 h of transfection, cells were harvested and washed with PBS once. […] Protein concentrations were determined by the BCA assay kit (G-Biosciences, 786) on a multi-mode microplate reader FilterMax F3 (Molecular Devices LLC, Sunnyvale, CA). […]
For immunoblotting analysis, proteins were transferred to a nitrocellulose membrane using iBlot (Thermo Scientific). […] All IR fluorescence western blot images are converted into grayscale images by Fiji ImageJ. The unsaturated exposure of immunoblot images was used for quantification with the appropriate loading controls as standards. […]

B1: split OGA (N2+C3): split OGA fragments N2 and C3 without nanobody (protein)
chain 1: MEQKLISEEDLAIAMVQKESQATLEERESELSSNPAASAGASLEPPAAPAPGEDNPAGAGGAAVAGAAGGARRFLCGVVEGFYGRPWVMEQRKELFRRLQKWELNTYLYAPKDDYKHRMFWREMYSVEEAEQLMTLISAAREYEIEFIYAISPGLDITFSNPKEVSTLKRKLDQVSQFGCRSFALLFDDIDHNMCAADKEVFSSFAHAQVSITNEIYQYLGEPETFLFCPTEYCGTFCYPNVSQSPYLRTVGEKLLPGIEVLWTGPKVVSKEIPVESIEEVSKIIKRAPVIWDNIHANDYDQKRLFLGPYKGRSTELIPRLKGVLTNPNCEFEANYVAIHTLATWYKSNMNGVRKDVVMTDSEDSTVSIQIKLENEGSDEDIETDVLYSPQMALKLALTEWLQEFGVPHQYSSR
chain 2: MAYPYDVPDYAAIAEKPLYTAEPVTLEDLQLLADLFYLPYEHGPKGAQMLREFQWLRANSSVVSVNCKGKDSEKIEEWRSRAAKFEEMCGLVMGMFTRLSNCANRTILYDMYSYVWDIKSIMSMVKSFVQWLGCRSHSSAQFLIGDQEPWAFRGGLAGEFQRLLPIDGANDLFFQPP
B1: the “deglycosidase activity / O-GlcNAc level on GFP-Sp1” value is “weak inherent deglycosidase activity”.

These data come from patent US20240043528A1, “NANOBODY-OGA FUSIONS AND USES THEREOF” (President and Fellows of Harvard College, priority 2020, published 2024).
